Columns and labels:
RbFox(RRM) = target: T1, RbFox(RRM) (UniProt Q9NWB1 109-208); assay: fluorescence anisotropy
T1 sequence: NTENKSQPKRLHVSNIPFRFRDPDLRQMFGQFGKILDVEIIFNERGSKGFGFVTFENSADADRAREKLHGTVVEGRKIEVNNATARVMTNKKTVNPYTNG

Dazl(RRM) = target: T2, Dazl(RRM) (Mus musculus, UniProt Q64368 32-117); assay: fluorescence anisotropy
T2 sequence: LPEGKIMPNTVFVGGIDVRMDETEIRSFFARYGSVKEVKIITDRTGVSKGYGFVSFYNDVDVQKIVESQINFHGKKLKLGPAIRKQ

UCCUGCAUGUUUA (ssRNA) [RbFox cognate RNA]
binding result (RbFox(RRM)): binds

UUGUUCUUU (ssRNA) [Dazl cognate RNA]
binding result (Dazl(RRM)): binds

Reference: publication PMC8299502
